US20170130210

Columns and labels:
[1] = biological target: Pfk-I (untagged), N-terminal 6x-His-tagged phosphofructokinase-I without C-terminal degradation tag (UniProt P0A796)
[2] = biological target: Pfk-I (DAS+4), N-terminal 6x-His-tagged Pfk-I with the modified DAS+4 tag at the C terminus (UniProt P0A796)
[3] = biological target: Pfk-I (LAA), N-terminal 6x-His-tagged Pfk-I with the native ssrA tag (LAA) appended to the C terminus (UniProt P0A796)
Pfk-I (LAA), N-terminal 6x-His-tagged Pfk-I with the native ssrA tag (LAA) appended to the C terminus, sequence (P0A796 other isoform, or with tags, fused parts or gaps): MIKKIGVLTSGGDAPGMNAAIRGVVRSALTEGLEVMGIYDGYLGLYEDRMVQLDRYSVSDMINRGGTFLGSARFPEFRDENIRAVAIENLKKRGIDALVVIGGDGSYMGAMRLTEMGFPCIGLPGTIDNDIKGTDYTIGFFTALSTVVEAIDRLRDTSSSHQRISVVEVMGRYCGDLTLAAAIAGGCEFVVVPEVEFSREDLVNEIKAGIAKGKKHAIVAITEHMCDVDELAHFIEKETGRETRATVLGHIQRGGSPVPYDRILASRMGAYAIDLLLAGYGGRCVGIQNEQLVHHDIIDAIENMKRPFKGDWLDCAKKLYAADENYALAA

Pfk-I (DAS+4), N-terminal 6x-His-tagged Pfk-I with the modified DAS+4 tag at the C terminus, sequence (P0A796 other isoform, or with tags, fused parts or gaps): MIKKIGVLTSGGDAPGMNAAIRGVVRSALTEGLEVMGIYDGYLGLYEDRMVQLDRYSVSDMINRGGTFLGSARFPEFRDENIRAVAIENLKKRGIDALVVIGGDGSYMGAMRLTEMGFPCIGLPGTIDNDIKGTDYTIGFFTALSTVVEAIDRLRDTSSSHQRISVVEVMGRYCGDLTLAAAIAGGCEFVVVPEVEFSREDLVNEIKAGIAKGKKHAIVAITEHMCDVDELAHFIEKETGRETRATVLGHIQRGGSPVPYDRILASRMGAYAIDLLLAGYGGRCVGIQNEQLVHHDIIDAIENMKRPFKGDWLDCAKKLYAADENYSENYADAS
Pfk-I (untagged), N-terminal 6x-His-tagged phosphofructokinase-I without C-terminal degradation tag, sequence (P0A796 whole entry): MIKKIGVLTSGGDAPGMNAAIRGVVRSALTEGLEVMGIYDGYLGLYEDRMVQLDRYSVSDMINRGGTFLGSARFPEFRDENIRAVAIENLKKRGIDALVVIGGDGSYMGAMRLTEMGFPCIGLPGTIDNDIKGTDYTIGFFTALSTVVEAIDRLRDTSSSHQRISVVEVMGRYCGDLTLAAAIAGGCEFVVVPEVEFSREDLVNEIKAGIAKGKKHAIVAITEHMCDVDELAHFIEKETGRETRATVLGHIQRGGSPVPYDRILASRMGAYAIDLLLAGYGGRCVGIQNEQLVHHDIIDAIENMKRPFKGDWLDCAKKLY

In the case of “ClpXP protease (0.3 µM ClpX6 and 0.9 µM ClpP14)”, the “in vitro degradation by ClpXP with ATP, SDS-PAGE time course” value [1] was “does not show significant degradation during the 60 minute incubation with ClpXP”, the “in vitro degradation by ClpXP with ATP, SDS-PAGE time course, no SspB” value [2] was “no significant degradation was observed over the 60 minute period” and the “in vitro degradation by ClpXP with ATP, SDS-PAGE time course” value [3] was “shows almost complete disappearance by 20 minutes”.
